From PMC1919475

How the values were obtained:
[1] = target: ECFP-CSB expressed in CS1AN.S3.G2 cells (human) (UniProt Q03468); assay: co-IP
[2] = target: Cockayne syndrome B (CSB) protein, full-length, purified recombinant (human) (UniProt Q03468); assay: ELISA
[3] = target: APE1, major human apurinic/apyrimidinic (AP) endonuclease, full-length, purified recombinant (human) (UniProt P27695); assay: ELISA
[4] = target: APE1, endogenous in ECFP-CSB-CS1AN cell extracts (human (endogenous in CS1AN fibroblasts)) (UniProt P27695); assay: co-IP

In the case of “APE1, endogenous in ECFP-CSB-CS1AN cell extracts (from UniProt P27695 1-318) (enzyme)”, the percent co-immunoprecipitated [1] is reported as 5 to 50%.
In the case of “APE1, major human apurinic/apyrimidinic (AP) endonuclease, full-length, purified recombinant (from UniProt P27695 1-318) (enzyme)”, the EC50 [2] is reported as greater than 20 nM.
For “Cockayne syndrome B (CSB) protein, full-length, purified recombinant (from UniProt Q03468 1-1493) (natural protein)”, the EC50 [3] was greater than 4.5 nM.
“ECFP-CSB expressed in CS1AN.S3.G2 cells (from UniProt Q03468 1-1493) (natural protein)” was tested, and the percent co-immunoprecipitated [4] was 5 to 50%.
